According to publication PMC6150406, “Adding an Artificial Tail—Anchor to a Peptide-Based HIV-1 Fusion Inhibitor for Improvement of Its Potency and Resistance Profile” (Molecules : A Journal of Synthetic Chemistry and Natural …, 2017):

Legend:
[1] = target: NHR peptide N46 (aa 536-581 of NHR) (HIV-1) (UniProt P04578); assay: ELISA; inhibition of 6-HB formation between N46 and C34
[2] = target: NHR peptide N46 (aa 536-581 of NHR) (HIV-1) (UniProt P04578); assay: thermal denaturation followed by circular dichroism
[3] = target: gp41 V38E, N42S (T20-resistant HIV-1 strain) (HIV-1)
[4] = target: gp41 V38A (T20-resistant HIV-1 strain) (HIV-1)
[5] = target: gp41 of the wild-type virus of the HP23-resistant panel (HIV-1)
[6] = target: gp41 E49K/N126K (HP23-resistant HIV-1 strain) (HIV-1)
[7] = target: gp41 D36G/E49K/N126K (HP23-resistant HIV-1 strain) (HIV-1)
[8] = target: gp41 V38A, N42T (T20-resistant HIV-1 strain) (HIV-1)
[9] = target: gp41 E49K (HP23-resistant HIV-1 strain) (HIV-1)
[10] = target: gp41 V38A, N42D (T20-resistant HIV-1 strain) (HIV-1)
[11] = target: gp41 of the WT virus of the T20-resistant panel (HIV-1)
[12] = target: gp41 L34S/D36G/E49K/E136G (HP23-resistant HIV-1 strain) (HIV-1)
[13] = target: gp41 Q66R (T2635-resistant HIV-1 strain) (HIV-1)
[14] = target: gp41 Q66R/N113E (T2635-resistant HIV-1 strain) (HIV-1)
[15] = target: gp41 K90E (T2635-resistant HIV-1 strain) (HIV-1)
[16] = target: gp41 Q79E/N126K (T2635-resistant HIV-1 strain) (HIV-1)
[17] = target: gp41 A6V (T2635-resistant HIV-1 strain) (HIV-1)
[18] = target: gp41 K154Q (T2635-resistant HIV-1 strain) (HIV-1)
[19] = target: gp41 H3C (T2635-resistant HIV-1 strain) (HIV-1)
[20] = target: gp41 Q79E (T2635-resistant HIV-1 strain) (HIV-1)
[21] = target: gp41 of the wild-type virus of the T2635-resistant panel (HIV-1)
[22] = target: gp41 K90E/N126K (T2635-resistant HIV-1 strain) (HIV-1)
[23] = target: gp41 N113E (T2635-resistant HIV-1 strain) (HIV-1)
[24] = target: gp41 N126K (T2635-resistant HIV-1 strain) (HIV-1)

NHR peptide N46 (aa 536-581 of NHR) (HIV-1), sequence (P04578 536-581): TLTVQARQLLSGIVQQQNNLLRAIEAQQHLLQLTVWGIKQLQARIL

HP23
IC50 [1]: 3720 nM

HP23 (peptide)
Tm of the 6-HB formed with N46 [2]: 81 °C
IC50, inhibition of HIV-1 infection (p24 ELISA), T20-resistant panel, virus V38E, N42S; blocks gp41 NHR-CHR 6-HB formation [3]: 6.2 nM
IC50, inhibition of HIV-1 infection (p24 ELISA), T20-resistant panel, virus V38A; blocks gp41 NHR-CHR 6-HB formation [4]: 2.1 nM
IC50, inhibition of HIV-1 infection (p24 ELISA), HP23-resistant panel, virus wild-type; blocks gp41 NHR-CHR 6-HB formation [5]: 3.3 nM
IC50, inhibition of HIV-1 infection (p24 ELISA), HP23-resistant panel, virus E49K/N126K; blocks gp41 NHR-CHR 6-HB formation [6]: 53.8 nM
IC50, inhibition of HIV-1 infection (p24 ELISA), HP23-resistant panel, virus D36G/E49K/N126K; blocks gp41 NHR-CHR 6-HB formation [7]: > 60 nM
IC50, inhibition of HIV-1 infection (p24 ELISA), T20-resistant panel, virus V38A, N42T; blocks gp41 NHR-CHR 6-HB formation [8]: 1.5 nM
IC50, inhibition of HIV-1 infection (p24 ELISA), HP23-resistant panel, virus E49K; blocks gp41 NHR-CHR 6-HB formation [9]: 13.4 nM
IC50, inhibition of HIV-1 infection (p24 ELISA), T20-resistant panel, virus V38A, N42D; blocks gp41 NHR-CHR 6-HB formation [10]: 2.9 nM
IC50, inhibition of HIV-1 infection (p24 ELISA), T20-resistant panel, virus WT; blocks gp41 NHR-CHR 6-HB formation [11]: 3.1 nM
IC50, inhibition of HIV-1 infection (p24 ELISA), HP23-resistant panel, virus L34S/D36G/E49K/E136G; blocks gp41 NHR-CHR 6-HB formation [12]: > 60 nM
IC50, inhibition of HIV-1 infection (p24 ELISA), T2635-resistant panel, virus Q66R; blocks gp41 NHR-CHR 6-HB formation [13]: 2.8 nM
IC50, inhibition of HIV-1 infection (p24 ELISA), T2635-resistant panel, virus Q66R/N113E; blocks gp41 NHR-CHR 6-HB formation [14]: 3.6 nM
IC50, inhibition of HIV-1 infection (p24 ELISA), T2635-resistant panel, virus K90E; blocks gp41 NHR-CHR 6-HB formation [15]: 9.4 nM
IC50, inhibition of HIV-1 infection (p24 ELISA), T2635-resistant panel, virus Q79E/N126K; blocks gp41 NHR-CHR 6-HB formation [16]: 5.2 nM
IC50, inhibition of HIV-1 infection (p24 ELISA), T2635-resistant panel, virus A6V; blocks gp41 NHR-CHR 6-HB formation [17]: 1.6 nM
IC50, inhibition of HIV-1 infection (p24 ELISA), T2635-resistant panel, virus K154Q; blocks gp41 NHR-CHR 6-HB formation [18]: 7.4 nM
IC50, inhibition of HIV-1 infection (p24 ELISA), T2635-resistant panel, virus H3C; blocks gp41 NHR-CHR 6-HB formation [19]: 5.4 nM
IC50, inhibition of HIV-1 infection (p24 ELISA), T2635-resistant panel, virus Q79E; blocks gp41 NHR-CHR 6-HB formation [20]: 4.2 nM
IC50, inhibition of HIV-1 infection (p24 ELISA), T2635-resistant panel, virus wild-type; blocks gp41 NHR-CHR 6-HB formation [21]: 2.8 nM
IC50, inhibition of HIV-1 infection (p24 ELISA), T2635-resistant panel, virus K90E/N126K; blocks gp41 NHR-CHR 6-HB formation [22]: 4.2 nM
IC50, inhibition of HIV-1 infection (p24 ELISA), T2635-resistant panel, virus N113E; blocks gp41 NHR-CHR 6-HB formation [23]: 2.3 nM
IC50, inhibition of HIV-1 infection (p24 ELISA), T2635-resistant panel, virus N126K; blocks gp41 NHR-CHR 6-HB formation [24]: 8.6 nM
